The results in this text go back to US20060003434.

The data set concerns T1, FLAG-Heme1B (human Eme1B, FLAG tagged at the C terminus).
T1 sequence: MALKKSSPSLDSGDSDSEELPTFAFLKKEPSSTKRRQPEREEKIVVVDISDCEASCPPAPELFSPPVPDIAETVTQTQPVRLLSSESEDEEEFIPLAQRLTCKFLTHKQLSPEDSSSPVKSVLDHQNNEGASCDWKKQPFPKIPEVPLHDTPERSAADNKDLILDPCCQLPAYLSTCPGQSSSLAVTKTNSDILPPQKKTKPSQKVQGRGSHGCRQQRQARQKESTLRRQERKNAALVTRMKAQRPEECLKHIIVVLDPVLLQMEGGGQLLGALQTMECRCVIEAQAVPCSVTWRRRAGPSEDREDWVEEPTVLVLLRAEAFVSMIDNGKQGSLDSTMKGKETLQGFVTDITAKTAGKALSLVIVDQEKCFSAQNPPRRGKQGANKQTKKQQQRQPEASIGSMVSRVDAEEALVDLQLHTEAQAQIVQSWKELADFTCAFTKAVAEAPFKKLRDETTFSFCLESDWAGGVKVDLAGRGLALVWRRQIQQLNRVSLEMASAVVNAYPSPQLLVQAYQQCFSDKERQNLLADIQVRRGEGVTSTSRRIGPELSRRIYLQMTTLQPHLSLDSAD

On to “3HaMus81 (triple hemagglutinin (3Ha) tagged Hmus81), wild type”, for which the “endonuclease activity of immune-precipitates on a 3' flap substrate” value is listed as “The activity of 3HaMus81 was greatly increased in cells that had been co-transfected with FLAG-Eme1B”.
